Measurements from patent US20220308072A1.

How the values were obtained:
[1] = biological target: Recombinant, his tagged full length human frataxin protein (Abcam ab95502) (human) (UniProt Q16595); assay: Simoa sandwich 3-step; capture Ab-4
[2] = biological target: Recombinant, his tagged full length human frataxin protein (Abcam ab95502) (human) (UniProt Q16595); assay: Simoa sandwich 3-step; capture Ab-3
[3] = biological target: Recombinant, his tagged full length human frataxin protein (Abcam ab95502) (human) (UniProt Q16595); assay: Simoa sandwich 3-step; capture Ab-5
[4] = biological target: Recombinant, his tagged full length human frataxin protein (Abcam ab95502) (human) (UniProt Q16595); assay: Simoa sandwich 3-step; capture Ab-2
[5] = biological target: Recombinant, his tagged full length human frataxin protein (Abcam ab95502) (human) (UniProt Q16595); assay: Simoa sandwich 3-step; capture Ab-1
[6] = biological target: Recombinant, his tagged full length human frataxin protein (Abcam ab95502) (human) (UniProt Q16595); assay: Simoa sandwich 2-step; capture Ab-3
[7] = biological target: Recombinant, his tagged full length human frataxin protein (Abcam ab95502) (human) (UniProt Q16595); assay: Simoa sandwich 3-step; capture Ab-3; remark: listed apart in the source
[8] = biological target: Recombinant, his tagged full length human frataxin protein (Abcam ab95502) (human) (UniProt Q16595); assay: Simoa sandwich 2-step; capture Ab-3; remark: listed apart in the source
[9] = biological target: Recombinant, his tagged full length human frataxin protein (Abcam ab95502) (human) (UniProt Q16595); assay: Simoa sandwich 3-step; capture Ab-4; frataxin 100 pg/mL
[10] = biological target: Recombinant, his tagged full length human frataxin protein (Abcam ab95502) (human) (UniProt Q16595); assay: Simoa sandwich 3-step; capture Ab-3; frataxin 100 pg/mL
[11] = biological target: Recombinant, his tagged full length human frataxin protein (Abcam ab95502) (human) (UniProt Q16595); assay: Simoa sandwich 3-step; capture Ab-5; frataxin 100 pg/mL
[12] = biological target: Recombinant, his tagged full length human frataxin protein (Abcam ab95502) (human) (UniProt Q16595); assay: Simoa sandwich 3-step; capture Ab-2; frataxin 100 pg/mL
[13] = biological target: Recombinant, his tagged full length human frataxin protein (Abcam ab95502) (human) (UniProt Q16595); assay: Simoa sandwich 3-step; capture Ab-1; frataxin 100 pg/mL
[14] = biological target: Recombinant, his tagged full length human frataxin protein (Abcam ab95502) (human) (UniProt Q16595); assay: Simoa sandwich 2-step; capture Ab-3; frataxin 100 pg/mL
[15] = biological target: Recombinant, his tagged full length human frataxin protein (Abcam ab95502) (human) (UniProt Q16595); assay: Simoa sandwich 3-step; capture Ab-3; frataxin 100 pg/mL; remark: listed apart in the source
[16] = biological target: Recombinant, his tagged full length human frataxin protein (Abcam ab95502) (human) (UniProt Q16595); assay: Simoa sandwich 2-step; capture Ab-3; frataxin 167 pg/mL
[17] = biological target: Recombinant, his tagged full length human frataxin protein (Abcam ab95502) (human) (UniProt Q16595); assay: Simoa sandwich 2-step; capture Ab-3; frataxin 500 pg/mL
[18] = biological target: Recombinant, his tagged full length human frataxin protein (Abcam ab95502) (human) (UniProt Q16595); assay: Simoa sandwich 3-step; capture Ab-4; frataxin 1000 pg/mL
[19] = biological target: Recombinant, his tagged full length human frataxin protein (Abcam ab95502) (human) (UniProt Q16595); assay: Simoa sandwich 3-step; capture Ab-3; frataxin 1000 pg/mL
[20] = biological target: Recombinant, his tagged full length human frataxin protein (Abcam ab95502) (human) (UniProt Q16595); assay: Simoa sandwich 3-step; capture Ab-5; frataxin 1000 pg/mL
[21] = biological target: Recombinant, his tagged full length human frataxin protein (Abcam ab95502) (human) (UniProt Q16595); assay: Simoa sandwich 3-step; capture Ab-2; frataxin 1000 pg/mL
[22] = biological target: Recombinant, his tagged full length human frataxin protein (Abcam ab95502) (human) (UniProt Q16595); assay: Simoa sandwich 3-step; capture Ab-1; frataxin 1000 pg/mL
[23] = biological target: Recombinant, his tagged full length human frataxin protein (Abcam ab95502) (human) (UniProt Q16595); assay: Simoa sandwich 2-step; capture Ab-3; frataxin 1000 pg/mL
[24] = biological target: Recombinant, his tagged full length human frataxin protein (Abcam ab95502) (human) (UniProt Q16595); assay: Simoa sandwich 3-step; capture Ab-3; frataxin 1000 pg/mL; remark: listed apart in the source
[25] = biological target: Recombinant, his tagged full length human frataxin protein (Abcam ab95502) (human) (UniProt Q16595); assay: Simoa sandwich 2-step; capture Ab-3; frataxin 18.5 pg/mL
[26] = biological target: Recombinant, his tagged full length human frataxin protein (Abcam ab95502) (human) (UniProt Q16595); assay: Simoa sandwich 2-step; capture Ab-3; frataxin 2.06 pg/mL
[27] = biological target: Recombinant, his tagged full length human frataxin protein (Abcam ab95502) (human) (UniProt Q16595); assay: Simoa sandwich 2-step; capture Ab-3; frataxin 55.6 pg/mL
[28] = biological target: Recombinant, his tagged full length human frataxin protein (Abcam ab95502) (human) (UniProt Q16595); assay: Simoa sandwich 2-step; capture Ab-3; frataxin 6.17 pg/mL
[29] = biological target: Recombinant, his tagged full length human frataxin protein (Abcam ab95502) (human) (UniProt Q16595); assay: Simoa sandwich 3-step; capture Ab-4; frataxin 10000 pg/mL
[30] = biological target: Recombinant, his tagged full length human frataxin protein (Abcam ab95502) (human) (UniProt Q16595); assay: Simoa sandwich 3-step; capture Ab-2; frataxin 10000 pg/mL
[31] = biological target: Recombinant, his tagged full length human frataxin protein (Abcam ab95502) (human) (UniProt Q16595); assay: Simoa sandwich 3-step; capture Ab-1; frataxin 10000 pg/mL
[32] = biological target: Recombinant, his tagged full length human frataxin protein (Abcam ab95502) (human) (UniProt Q16595); assay: Simoa sandwich 2-step; capture Ab-3; frataxin 0.686 pg/mL

UniProt Q16595, sequence (Q16595 42-210): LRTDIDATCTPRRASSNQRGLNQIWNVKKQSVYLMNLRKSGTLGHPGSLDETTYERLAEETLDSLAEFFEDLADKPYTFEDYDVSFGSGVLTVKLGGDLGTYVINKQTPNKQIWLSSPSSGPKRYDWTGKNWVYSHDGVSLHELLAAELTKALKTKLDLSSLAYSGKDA

“Ab-4, mouse monoclonal [17A11] to Frataxin (Abcam ab113691) (antibody)” showed an LOD [1] of 358 pg/mL, an LOD [2] of 2.41 pg/mL and an LOD [3] of 6.44 pg/mL. For the same substance, the LOD [4] was 5.01 pg/mL, the LOD [5] was 23.9 pg/mL and the LOD [6] was 0.36 pg/mL. It also gave an LOD [7] of 1.59 pg/mL, an LOD [8] of 0.44 pg/mL and an Ave AEB [9] of 0.0213 AEB. It also gave a S/B [9] of 0.93, an Ave AEB [10] of 0.68 AEB and a S/B [10] of 11.7. For the same substance, the Ave AEB [11] was 2.02 AEB, the S/B [11] was 4.93 and the Ave AEB [12] was 1.02 AEB. The S/B [12] was 5.67, the Ave AEB [13] was 0.64 AEB and the S/B [13] was 2.9. For the same substance, the Ave AEB [14] was 5.1 AEB, the S/B [14] was 67.6 and the Ave AEB [15] was 1.34 AEB. The S/B [15] was 16.8, the Ave AEB [16] was 11.1 AEB and the S/B [16] was 97. The Ave AEB [17] was 23.7 AEB, the S/B [17] was 206 and the Ave AEB [18] was 0.0589 AEB. It also gave a S/B [18] of 2.55, an Ave AEB [19] of 8.02 AEB and a S/B [19] of 138. It also gave an Ave AEB [20] of 18.6 AEB, a S/B [20] of 45.4 and an Ave AEB [21] of 7.32 AEB. The S/B [21] was 40.7, the Ave AEB [22] was 8.74 AEB and the S/B [22] was 39.6. For the same substance, the Ave AEB [23] was 29.7 AEB, the S/B [23] was 394 and the Ave AEB [24] was 12.8 AEB. The S/B [24] was 160, the Ave AEB [25] was 1.31 AEB and the S/B [25] was 11.4. The Ave AEB [26] was 0.259 AEB, the S/B [26] was 2.25 and the Ave AEB [27] was 3.75 AEB. The S/B [27] was 32.6, the Ave AEB [28] was 0.56 AEB and the S/B [28] was 4.87. For the same substance, the Ave AEB [29] was 0.82 AEB, the S/B [29] was 35.6 and the Ave AEB [30] was 32.9 AEB. The S/B [30] was 183, the Ave AEB [31] was 30.9 AEB and the S/B [31] was 140. For the same substance, the Ave AEB [32] was 0.157 AEB and the S/B [32] was 1.36.
